Reference: PMC4678825

Target: Qβ replicase core complex (β-subunit, EF-Tu and EF-Ts), wild type (E. coli | bacteriophage Qβ)
Experiment: SEC-MALS

Substance: Qβ replicase core complex (β-subunit, EF-Tu and EF-Ts), wild type
- stoichiometry N: 2
